Experimental data as given in publication PMC2690590 (2009).

B1: C-terminal fragment of the invariant chain (positions 118–208), devoid of CLIP (domain or fragment)
chain: LPMGALPQGPMQNATKYGNMTEDHVMHLLQNADPLKVYPPLKGSFPENLRHLKNTMETIDWKVFESWMHHWLLFEMSRHSLEQKPTDAPPK
B2: recombinant extracellular part of human invariant chain (positions 73–208) (domain or fragment)
chain: QQQGRLDKLTVTSQNLQLENLRMKLPKPPKPVSKMRMATPLLMQALPMGALPQGPMQNATKYGNMTEDHVMHLLQNADPLKVYPPLKGSFPENLRHLKNTMETIDWKVFESWMHHWLLFEMSRHSLEQKPTDAPPK

Target: DR1: DRA*0101(1–191)/DRB1*0101(1–198) (human)

Row | Binder | IC50 [nM]
1 | B1 | 1700
2 | PKYVKQNTLKLAT [influenza hemagglutinin peptide HA306–318] | 34
3 | B2 | 40
4 | LPKPPKPVSKMRMATPLLMQALPM [CLIP peptide fragment of the invariant chain (positions 97–120)] | 40
